Source: patent US20260216242A1 (ALMAC DISCOVERY, published 2026)
Substitutions are numbered along the chain they refer to. In names and notes the source's numbering stands.

T1: ALPI His homodimer (human, UniProt P09923 20-503)
T1 construct: Whole entry with His tag; used in ELISA and BLI; also called hALPI
T1 sequence: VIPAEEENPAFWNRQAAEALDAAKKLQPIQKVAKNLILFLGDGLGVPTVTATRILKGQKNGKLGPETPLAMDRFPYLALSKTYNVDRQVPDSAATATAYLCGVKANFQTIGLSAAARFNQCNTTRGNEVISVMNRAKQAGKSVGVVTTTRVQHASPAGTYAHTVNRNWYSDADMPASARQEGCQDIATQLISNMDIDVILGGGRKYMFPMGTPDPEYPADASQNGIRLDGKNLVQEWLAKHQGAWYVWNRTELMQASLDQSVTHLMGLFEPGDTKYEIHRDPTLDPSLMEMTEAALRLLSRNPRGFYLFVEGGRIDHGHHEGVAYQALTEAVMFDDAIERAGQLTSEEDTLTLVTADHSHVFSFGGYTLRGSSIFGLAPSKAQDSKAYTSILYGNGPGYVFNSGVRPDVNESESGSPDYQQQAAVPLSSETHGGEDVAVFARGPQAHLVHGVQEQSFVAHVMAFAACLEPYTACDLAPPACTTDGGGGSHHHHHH

T2: Human ALPP (leucine zipper) (human)
T2 construct: Whole entry: ALPP fused with a cysteine stabilised leucine zipper and His tag; also called hALPP
T2 chain: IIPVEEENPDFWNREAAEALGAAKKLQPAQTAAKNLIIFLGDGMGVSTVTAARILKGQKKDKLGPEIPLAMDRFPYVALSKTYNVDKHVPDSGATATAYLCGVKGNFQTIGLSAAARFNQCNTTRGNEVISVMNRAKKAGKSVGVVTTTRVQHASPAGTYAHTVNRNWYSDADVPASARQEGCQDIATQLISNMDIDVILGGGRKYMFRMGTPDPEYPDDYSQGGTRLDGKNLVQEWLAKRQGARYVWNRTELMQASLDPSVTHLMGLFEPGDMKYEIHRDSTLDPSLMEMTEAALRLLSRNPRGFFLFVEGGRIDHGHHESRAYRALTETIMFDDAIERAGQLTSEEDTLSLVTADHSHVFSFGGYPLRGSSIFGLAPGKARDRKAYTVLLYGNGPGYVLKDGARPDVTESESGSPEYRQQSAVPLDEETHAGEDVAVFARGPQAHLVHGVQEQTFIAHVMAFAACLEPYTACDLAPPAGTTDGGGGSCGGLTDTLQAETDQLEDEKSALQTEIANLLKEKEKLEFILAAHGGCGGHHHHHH

T3: Human ALPL (leucine zipper) (human)
T3 construct: Whole entry: fused with a cysteine stabilised leucine zipper and His tag; also called hALPL
T3 chain: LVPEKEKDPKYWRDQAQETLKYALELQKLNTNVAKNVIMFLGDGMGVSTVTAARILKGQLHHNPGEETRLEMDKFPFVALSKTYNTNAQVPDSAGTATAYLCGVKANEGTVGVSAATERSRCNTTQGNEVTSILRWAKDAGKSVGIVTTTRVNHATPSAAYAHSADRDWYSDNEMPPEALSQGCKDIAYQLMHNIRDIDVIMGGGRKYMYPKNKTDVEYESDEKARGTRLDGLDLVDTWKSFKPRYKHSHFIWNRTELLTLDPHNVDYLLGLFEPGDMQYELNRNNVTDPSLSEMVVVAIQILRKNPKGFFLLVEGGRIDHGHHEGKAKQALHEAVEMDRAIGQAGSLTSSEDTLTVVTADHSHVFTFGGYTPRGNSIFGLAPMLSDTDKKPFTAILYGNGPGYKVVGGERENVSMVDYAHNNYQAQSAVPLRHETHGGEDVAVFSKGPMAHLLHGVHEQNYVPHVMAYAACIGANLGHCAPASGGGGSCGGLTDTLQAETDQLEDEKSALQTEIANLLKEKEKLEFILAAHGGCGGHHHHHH

T4: Human ALPP (leucine zipper) (human)
T4 construct: Soluble human ALPP fused to a disulphide stabilised leucine zipper and a His tag; The whole entry is the construct; also called hALPP; PLAP
T4 chain: T2 chain

B1: C05 (VHH, not shown: small tags and cut ends)
VHH: QVQLVESGGGLVQAGGSLRLSCAASRRSFSEYAMGWFRQAPGKEREFVAAIGWSGVIEYADSVKGRFTISRDNAKDTVYLQMNSLKPEDTAVYYCAAGLGIRVVSQTPAYWGQGTQVTVSS
B2: C06 (VHH, not shown: small tags and cut ends)
VHH: QVQLVESGGGLVQPGGSLRVSCAASGPSLSNYAMGWFRQAPGKEREFVAGISWGGGRTSYTDSVKGRFTISRDNAKNTVYLQMNNLKPEDTGVYYCAGRYGRGRNVEYEYDYWGQGTQVTVSS
B3: D11 (VHH, not shown: small tags and cut ends)
VHH: B2 VHH with L11S, P14A, V20L, Q118M
B4: D08 (VHH, not shown: small tags and cut ends)
VHH: B2 VHH with Q3H, L11S, P14A, V20L, Q118K
B5: A08 (VHH, not shown: small tags and cut ends)
VHH: QVQLVESGGGLVQAGESLRLACAASGTIFSGNAVGWYRQAPEKQREWVSSITDYGDTDYAEAVKGRFTISRDNAKNTVYLQMNSLKPEDTAVYYCYVYQRGESEEYWGQGTKVTVSS
B6: A06 E06-hFc (S239C + S442C), mixed linkers (A06 - [G4S]1, E06 - [G4S]3) (Fc fusion)
chain 1: QVHLVESGGGLVQAGGSLRLSCAASGRTFLSMGWFRQAPGKEREFVAAISWTGGSTGYADSVKGRFTISRESDKETMYLQMNSLKPEDTAVYYCAARGDVYYGGDDATRYKYWGQGTQVTVSSGGGGSEPKSSDKTHTCPPCPAPELLGGPCVFLFPPKPKDTLMISRTPEVTCVVVDVSHEDPEVKFNWYVDGVEVHNAKTKPREEQYNSTYRVVSVLTVLHQDWLNGKEYKCKVSNKALPAPIEKTISKAKGQPREPQVYTLPPSRDELTKNQVSLYCLVKGFYPSDIAVEWESNGQPENNYKTTPPVLDSDGSFFLYSKLTVDKSRWQQGNVFSCSVMHEALHNHYTQKSLCLSPGK
chain 2: QVHLVESGGGLVQAGGSLRLSCAASRRSFSEYAMGWFRQAPGKEREFVAAIGWSGVIEYADSVKGRFTISRDNAKDTVYLQMNSLKPEDTAVYYCAAGLGIRVVSQTPAYWGQGTQVTVSSGGGGSGGGGSGGGGSEPKSSDKTHTCPPCPAPELLGGPCVFLFPPKPKDTLMISRTPEVTCVVVDVSHEDPEVKFNWYVDGVEVHNAKTKPREEQYNSTYRVVSVLTVLHQDWLNGKEYKCKVSNKALPAPIEKTISKAKGQPREPQVYTLPPSRDELTKNQVSLTCLVKGFYPSDIAVEWESNGQPENNYKTTPPVLDSDGSFFLTSKLTVDKSRWQQGNVFSCSVMHEALHNHYTQKSLCLSPGK
notes: Biparatopic heterodimer; also called #706
B7: A06 E10-hFc (S239C + S442C), mixed linkers (A06 - [G4S]1, E10 - [G4S]3) (Fc fusion)
chain 1: B6 chain 1
chain 2: QVQLVESGGGLVQAGGSLRLSCAVSGRALSDYNIGWFRQAPGKEREFVARKTWDGSSTRYDDSVKGRFTVSIEDAKNTAYLQMSSLKTEDTAVYYCAAGRYSRARGWEYDYWGQGTQVTVSSGGGGSGGGGSGGGGSEPKSSDKTHTCPPCPAPELLGGPCVFLFPPKPKDTLMISRTPEVTCVVVDVSHEDPEVKFNWYVDGVEVHNAKTKPREEQYNSTYRVVSVLTVLHQDWLNGKEYKCKVSNKALPAPIEKTISKAKGQPREPQVYTLPPSRDELTKNQVSLTCLVKGFYPSDIAVEWESNGQPENNYKTTPPVLDSDGSFFLTSKLTVDKSRWQQGNVFSCSVMHEALHNHYTQKSLCLSPGK
notes: Biparatopic heterodimer; also called #707
B8: A06 F05-hFc (S239C + S442C), mixed linkers (A06 - [G4S]1, F05 - [G4S]3) (Fc fusion)
chain 1: B6 chain 1
chain 2: B7 chain 2 with V24A, L29F, S30G, K51R, E73D, D74N, S84N, A104V
notes: Biparatopic heterodimer; also called #708
B9: D10 A06-hFc (S239C + S442C), mixed linkers (D10 - [G4S]1, A06 - [G4S]3) (Fc fusion)
chain 1: QVQLVESGGGLVQPGGSLRLSCAASGSIFSVNTMGWYRQAPGKQRDLVAVATSGGTIHYADSVKGRFTISRDNAKNTVYLQMNSLKPEDTAVYYCNLVVPYGMIAGDHDYWGQGTKVTVSSGGGGSEPKSSDKTHTCPPCPAPELLGGPCVFLFPPKPKDTLMISRTPEVTCVVVDVSHEDPEVKFNWYVDGVEVHNAKTKPREEQYNSTYRVVSVLTVLHQDWLNGKEYKCKVSNKALPAPIEKTISKAKGQPREPQVYTLPPSRDELTKNQVSLYCLVKGFYPSDIAVEWESNGQPENNYKTTPPVLDSDGSFFLYSKLTVDKSRWQQGNVFSCSVMHEALHNHYTQKSLCLSPGK
chain 2: QVHLVESGGGLVQAGGSLRLSCAASGRTFLSMGWFRQAPGKEREFVAAISWTGGSTGYADSVKGRFTISRESDKETMYLQMNSLKPEDTAVYYCAARGDVYYGGDDATRYKYWGQGTQVTVSSGGGGSGGGGSGGGGSEPKSSDKTHTCPPCPAPELLGGPCVFLFPPKPKDTLMISRTPEVTCVVVDVSHEDPEVKFNWYVDGVEVHNAKTKPREEQYNSTYRVVSVLTVLHQDWLNGKEYKCKVSNKALPAPIEKTISKAKGQPREPQVYTLPPSRDELTKNQVSLTCLVKGFYPSDIAVEWESNGQPENNYKTTPPVLDSDGSFFLTSKLTVDKSRWQQGNVFSCSVMHEALHNHYTQKSLCLSPGK
notes: Biparatopic heterodimer; also called #702
B10: D10 E10-hFc (S239C + S442C), mixed linkers (D10 - [G4S]1, E10 - [G4S]3) (Fc fusion)
chain 1: B9 chain 1
chain 2: B7 chain 2
notes: Biparatopic heterodimer; also called #704
B11: D10 E06-hFc (S239C + S442C), mixed linkers (D10 - [G4S]1, E06 - [G4S]3) (Fc fusion)
chain 1: B9 chain 1
chain 2: B6 chain 2
notes: Biparatopic heterodimer; also called #703

These binders were tested against T1, ALPI His homodimer (assay: ELISA, antigen coated).
Excerpt: ELISA was used to test the binding and specificity of the VHHs. […] Anti-Llama—HRP antibody was used for detection.

Q: Does B1 bind?
A: Result: no binding (tested: 500 ng VHH)

Q: Does B2 bind?
A: Result: no binding (tested: 500 ng VHH)

Q: Does B3 bind?
A: Result: no binding (tested: 500 ng VHH)

Q: Does B4 bind?
A: Result: no binding (tested: 500 ng VHH)

Q: Does B5 bind?
A: Result: no binding (tested: 500 ng VHH)

Target: T2, Human ALPP (leucine zipper)
Experiment: BLI, antigen immobilised
Description: (§1) Binding kinetics were determined using the Biolayer Interferometry (BLI) Octet K2 system (Sartorius). […] All assays were conducted in PBS with a plate temperature of 25° C. Ka (M⁻¹s⁻¹), Kd (s⁻¹) and KD (nM) values were determined using Octet Data Analysis High Throughput software (ForteBio) for Biolayer Interferometry.

Q: How did the Kd turn out when B1 was run?
A: The Kd was under 0.01 nM.

Q: What about the koff of the same binder?
A: Its koff is under 1e-07 s⁻¹.

Q: What about the kon of the same binder?
A: Its kon is 394000 M⁻¹ s⁻¹.

Q: For B2, which Kd is on record?
A: The Kd was under 0.01 nM.

Q: And the koff?
A: Its koff is under 1e-07 s⁻¹.

Q: And the kon?
A: Its kon is 368000 M⁻¹ s⁻¹.

Q: B3 was tested. Which Kd did it give?
A: Its Kd is under 0.01 nM.

Q: And the koff?
A: The koff was under 1e-07 s⁻¹.

Q: What about the kon of the same binder?
A: Its kon is 97700 M⁻¹ s⁻¹.

Q: Which Kd does the source give for B4 here?
A: Its Kd is under 0.01 nM.

Q: What about the koff of the same binder?
A: The koff was under 1e-07 s⁻¹.

Q: And the kon?
A: The kon was 175000 M⁻¹ s⁻¹.

Q: B5 was tested. Which Kd did it give?
A: Its Kd is 0.03 nM.

Q: What about the koff of the same binder?
A: The koff was 1.2e-05 s⁻¹.

Q: What about the kon of the same binder?
A: The kon was 429000 M⁻¹ s⁻¹.

Target: T3, Human ALPL (leucine zipper)
Experiment: BLI, antigen immobilised
Description: as §1

Q: Does B1 bind?
A: Result: no binding

Q: Does B2 bind?
A: Result: no binding

Q: Does B3 bind?
A: Result: no binding

Q: Does B4 bind?
A: Result: no binding

Q: Does B5 bind?
A: Result: no binding

Target: T4, Human ALPP (leucine zipper)
Experiment: BLI, KD app (antigen immobilised on AR2G sensor)
Description: Binding kinetics were determined using the Biolayer Interferometry (BLI) Octet K2 or R4 system (Sartorius). […] For KD apparent measurements, the ALPP proteins were immobilised in sodium acetate pH5 buffer to AR2G sensors using amine coupling. To measure 1:1 interactions, AHC biosensors were used to immobilise Fc-fused proteins. All assays were conducted in HBS-EP with a plate temperature of 25° C. Ka (M⁻¹s⁻¹), Kd (s⁻¹) and KD (nM) values were determined using Octet Data Analysis High Throughput software (Sartorius) for Biolayer Interferometry.

Q: Which results are given for B6?
A: Kd: < 0.01 nM; kon: 429000 M⁻¹ s⁻¹

Q: How did the kon turn out when B7 was run?
A: Its kon is 421000 M⁻¹ s⁻¹.

Q: Which kon does the source give for B8 here?
A: The kon was 426000 M⁻¹ s⁻¹.

Q: For B9, which Kd is on record?
A: The Kd was under 0.01 nM.

Q: What about the kon of the same binder?
A: The kon was 343000 M⁻¹ s⁻¹.

Q: For B10, which Kd is on record?
A: The Kd was under 0.01 nM.

Q: And the kon?
A: The kon was 385000 M⁻¹ s⁻¹.

Q: How did the Kd turn out when B11 was run?
A: The Kd was 0.11 nM.

Q: What about the kon of the same binder?
A: Its kon is 465000 M⁻¹ s⁻¹.
